Patent US20240247080A1, “GLP1/GIP/NPY2 RECEPTOR TRIPLE AGONISTS” (Boehringer Ingelheim International GmbH, priority 2022, published 2024)
Starred links: 1 amine or outer side, 2 acyl side, 3 side chain; linkers in the order of their positions; H or OH if unused. Non-standard residues stand in square brackets, D forms with d. Groups on a side chain read outwards from the residue. No end group written: not given here. *: point of attachment. C20 diacid = O=C(O)CCCCCCCCCCCCCCCCCCC(=O)*; C18 diacid = O=C(O)CCCCCCCCCCCCCCCCC(=O)*; γGlu = O=C(O)[C@H](CCC(=O)[*:2])N[*:1]; εLys = N[C@@H](CCCCN[*:1])C(=O)[*:2]; AEEA = NCCOCCOCC(=O)O; Aib = CC(C)(N)C(=O)O

Tests used:
Experiment in all cases: cell-based or functional assay
[1] = target: T1, GIP receptor (human (printed as hGIPR), UniProt P48546 22-466)
T1 sequence (looked up): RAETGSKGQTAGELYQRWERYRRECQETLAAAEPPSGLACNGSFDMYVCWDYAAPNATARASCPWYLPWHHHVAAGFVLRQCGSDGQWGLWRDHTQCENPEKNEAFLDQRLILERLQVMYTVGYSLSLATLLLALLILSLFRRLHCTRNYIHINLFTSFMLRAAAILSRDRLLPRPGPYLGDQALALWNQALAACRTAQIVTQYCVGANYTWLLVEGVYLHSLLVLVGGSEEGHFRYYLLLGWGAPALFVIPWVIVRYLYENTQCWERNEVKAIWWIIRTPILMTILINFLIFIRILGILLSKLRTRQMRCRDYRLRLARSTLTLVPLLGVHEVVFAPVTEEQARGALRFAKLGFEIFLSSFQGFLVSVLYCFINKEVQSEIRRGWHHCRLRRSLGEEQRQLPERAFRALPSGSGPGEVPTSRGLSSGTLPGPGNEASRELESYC

[2] = target: T2, NPY2 receptor (human (printed as hNPY2R), UniProt P49146 1-381)
T2 sequence (looked up): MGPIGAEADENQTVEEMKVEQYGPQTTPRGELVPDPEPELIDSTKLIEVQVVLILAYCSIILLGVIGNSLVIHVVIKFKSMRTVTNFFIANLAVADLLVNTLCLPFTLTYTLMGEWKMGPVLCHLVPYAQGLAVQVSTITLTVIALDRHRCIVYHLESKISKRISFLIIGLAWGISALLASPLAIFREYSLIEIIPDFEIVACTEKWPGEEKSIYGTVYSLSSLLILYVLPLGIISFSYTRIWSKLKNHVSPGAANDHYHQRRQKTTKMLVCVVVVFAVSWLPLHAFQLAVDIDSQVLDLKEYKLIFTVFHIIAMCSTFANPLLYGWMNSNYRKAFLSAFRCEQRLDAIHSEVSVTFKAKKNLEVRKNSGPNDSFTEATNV

[3] = target: GLP-1 receptor (human (printed as hGLP1R), UniProt P43220 24-463)

| Binder | EC50 hGIPR 0.5% hP (CreLuc) [1] [nM] | EC50 hGIPR 100% hP (CreLuc) [1] [nM] | EC50 hNPY2R 0.5% hP (CreLuc) [2] [nM] | EC50 hNPY2R 100% hP (CreLuc) [2] [nM] | EC50 hGLP1R 0.5% hP (CreLuc) [3] [nM] | EC50 hGLP1R 100% hP (CreLuc) [3] [nM] |
| --- | --- | --- | --- | --- | --- | --- |
| Y[Aib]EGTFTSDYSI[Aib]LEKQAQ[Aib]AFVEWLIK([AEEA-AEEA-γGlu-γGlu-γGlu-γGlu-C18 diacid])GGPSSGASLRHYYNWLTRQRY-NH2 (also: TFA salt) [Compound 254] | 0.22 | 0.63 | 17.8 | 30.9 | 0.07 | 1.69 |
| Y[Aib]EGTFTSDYSI[Aib]LEKQAQ[Aib]AFVQWLIK([εLys-γGlu-γGlu-γGlu-γGlu-γGlu-C20 diacid])GGPSEGASLRHYYNWLTRQRY-NH2 (also: TFA salt) [Compound 242] | 0.32 | 1.72 | 7.54 | 28.8 | 0.13 | 4.69 |
| Y[Aib]EGTFTSDYSI[Aib]LEKQAQ[Aib]AFVQWLIK([εLys-Glu-Glu-Glu-Glu-Glu-C20 diacid])GGPSEGASLRHYYNWLTRQRY-NH2 (also: TFA salt) [Compound 240] | 0.33 | 1.97 | 10.7 | 77.5 | 0.14 | 6.74 |
| Y[Aib]EGTFTSDYSI[Aib]LEKQAQ[Aib]AFVQWLIK([γGlu-γGlu-γGlu-γGlu-γGlu-γGlu-C18 diacid])GGPSEGASLRHYYNWLTRQRY-NH2 (also: TFA salt) [Compound 252] | 0.29 | 1.25 | 14.5 | 33.5 | 0.1 | 2.59 |
| Y[Aib]EGTFTSDYSI[Aib]LEKQAQ[Aib]AFVQWLIKGGPSEGASLRHYYNWLTRQRY-NH2 (not fully specified (residue 28); also: TFA salt) [Compound 245] | 0.37 | 1.74 | 24.5 | 66.9 | 0.09 | 3.78 |
| Y[Aib]EGTFTSDYSI[Aib]LEKQAQ[Aib]AFVQWLIKGGPSEGASLRHYYNWLTRQRY-NH2 (not fully specified (residue 28); also: TFA salt) [Compound 243] | 0.54 | 2.97 | 9.16 | 50.6 | 0.12 | 5.96 |
| Y[Aib]EGTFTSDYSI[Aib]LEKQAQ[Aib]AFVEWLIK([AEEA-AEEA-γGlu-γGlu-γGlu-C18 diacid])GGPEEGASLRHYYNWLTRQRY-NH2 (also: TFA salt) [Compound 248] | 0.12 | 0.79 | 18.7 | 48.4 | 0.25 | 8 |
| YXEGTFTSDYSIXLEKQAQXAFVEWLIKGGPSEGESLRHYYNWLTRQRY (Aib at 2, 13, 20; K28 side chain carries C20DA-gGlu-gGlu-gGlu-gGlu-gGlu-gGlu-eLys; C-terminal amide) [Compound 237] | 0.1 | 1.17 | 18 | 45.5 | 0.26 | 3.11 |
| YXEGTFTSDYSIXLEKQAQXAFVEWLIKGGPSSGASLRHYYNWLTRQRY (Aib at 2, 13, 20; K28 side chain carries C20DA-gGlu-gGlu-gGlu-gGlu-gGlu; C-terminal amide) [Compound 238] | 0.52 | 1.59 | 11.6 | 49.4 | 0.1 | 2.55 |
| YXEGTFTSDYSIXLEKQAQXAFVEWLIKGGPSTGASLRHYYNWLTRQRY (Aib at 2, 13, 20; K28 side chain carries C20DA-gGlu-gGlu-gGlu-gGlu-gGlu-gGlu-eLys; C-terminal amide) [Compound 244] | 0.32 | 2.32 | 13.5 | 58.3 | 0.19 | 5.98 |
| YXEGTFTSDYSIXLEKQAQXAFVEWLIKGGPSEGVSLRHYYNWLTRQRY (Aib at 2, 13, 20; K28 side chain carries C20DA-gGlu-gGlu-gGlu-gGlu-gGlu-gGlu-eLys; C-terminal amide) [Compound 241] | 0.69 | 4.36 | 16.6 | 34.1 | 0.77 | 9.65 |
| YXEGTFTSDYSIXLEKQAQXAFVQWLIKGGPSEGASLRHYYNWLTRQRY (Aib at 2, 13, 20; K28 side chain carries C18DA-E-E-E-E-E-E-eLys (SEQ ID NO: 643); C-terminal amide) [Compound 249] | 0.19 | 1.25 | 17.8 | 50 | 0.13 | 1.78 |
| YXEGTFTSDYSIXLEKQAQXAFVQWLIKGGPSEGASLRHYYNWLTRQRY (Aib at 2, 13, 20; K28 side chain carries C18DA-gGlu-gGlu-gGlu-gGlu-gGlu; C-terminal amide) [Compound 250] | 0.2 | 1.25 | 12.2 | 37.4 | 0.08 | 2.03 |
| YXEGTFTSDYSIXLEKQAQXAFVQWLIKGGPSEGASLRHYYNWLTRQRY (Aib at 2, 13, 20; K28 side chain carries C18DA-gGlu-gGlu-gGlu-gGlu-gGlu-OEG-OEG; C-terminal amide) [Compound 246] | 0.16 | 0.95 | 12.8 | 28.2 | 0.11 | 2.7 |
| YXEGTFTSDYSIXLEKQAQXAFVEWLIKGGPSSGASLRHYYNWLTRQRY (Aib at 2, 13, 20; K28 side chain carries C18DA-gGlu-gGlu-gGlu-gGlu-gGlu; C-terminal amide) [Compound 253] | 0.24 | 0.64 | 13.4 | 39.3 | 0.08 | 0.74 |
| YXEGTFTSDYSIXLEKQAQXEFVEWLIKGGPSEGASLRHYYNWLTRQRY (Aib at 2, 13, 20; K28 side chain carries C18DA-gGlu-gGlu-gGlu-gGlu-gGlu-gGlu-eLys; C-terminal amide) [Compound 255] | 0.46 | 1.23 | 17.3 | 40.9 | 0.34 | 7.31 |
| Y[Aib]EGTFTSDYSI[Aib]LEKQAQ[Aib]AFIEWLIK([γGlu-γGlu-γGlu-γGlu-C18 diacid])GGPSEGASLRHYYNWLTRQRY-NH2 (also: TFA salt) [Compound 247] | 0.26 | 1.57 | 11.9 | 64.7 | 0.11 | 2.2 |
| Y[Aib]EGTFTSDYSI[Aib]LEKQAQ[Aib]AFVEWLIK([AEEA-AEEA-γGlu-γGlu-γGlu-γGlu-C18 diacid])GGPSEPASLRHYYNWLTRQRY-NH2 (also: TFA salt) [Compound 256] | 0.23 | 1.56 | 10.9 | 27 | 0.18 | 4.59 |
| Y[Aib]EGTFTSDYSI[Aib]LEKQAQ[Aib]AFVQWLIK([AEEA-AEEA-Glu-Glu-Glu-Glu-C20 diacid])GGPSEGASLRHYYNWLTRQRY-NH2 (also: TFA salt) [Compound 239] | 0.35 | 1.55 | 13.6 | 57 | 0.11 | 4.76 |
| Y[Aib]EGTFTSDYSI[Aib]LEKQAE[Aib]AFVEWLIK([AEEA-AEEA-γGlu-γGlu-γGlu-γGlu-C18 diacid])GGPSEGASLRHYYNWLTRQRY-NH2 (also: TFA salt) [Compound 251] | 0.16 | 0.98 | 20.6 | 48.7 | 0.49 | 7.16 |
